The values below come from paper PMC4891050, “A novel small-molecule compound targeting CD147 inhibits the motility and invasion of hepatocellular carcinoma cells” (Oncotarget, 2016).

In data set [1] the target is T1, wild-type CD147 extracellular portion (residues 22-205) tagged with 6 x His, P35613.
T1 chain: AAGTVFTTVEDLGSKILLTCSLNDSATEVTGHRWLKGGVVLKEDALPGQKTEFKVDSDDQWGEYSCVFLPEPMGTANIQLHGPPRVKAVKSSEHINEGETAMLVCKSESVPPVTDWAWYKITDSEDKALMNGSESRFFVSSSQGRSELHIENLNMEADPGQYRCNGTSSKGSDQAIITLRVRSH
Description: native gel or EMSA; non-denaturing SDS-PAGE: 5 ug purified protein with DMSO or AC-73 (0, 0.1, 0.25 or 0.5 uM), 5x Laemmli sample buffer lacking SDS, 10% SDS-PAGE without boiling, immunoblot with anti-His6; monomer and dimer bands. As to conditions: remark: other sources report otherwise.

Data set [2] deals with the molecule itself. Described as above.

B1: wild-type CD147 extracellular portion (residues 22-205) tagged with 6 x His, P35613-2 22-205 (domain or fragment)
chain: AAGTVFTTVEDLGSKILLTCSLNDSATEVTGHRWLKGGVVLKEDALPGQKTEFKVDSDDQWGEYSCVFLPEPMGTANIQLHGPPRVKAVKSSEHINEGETAMLVCKSESVPPVTDWAWYKITDSEDKALMNGSESRFFVSSSQGRSELHIENLNMEADPGQYRCNGTSSKGSDQAIITLRVRSH
Take B1: the stoichiometry N in data set [1] was 2.

B2: CD147 mutant E73A, extracellular portion tagged with 6 x His (domain or fragment, UniProt P35613-2 22-205, looked up)
chain: AAGTVFTTVEDLGSKILLTCSLNDSATEVTGHRWLKGGVVLKEDALPGQKTAFKVDSDDQWGEYSCVFLPEPMGTANIQLHGPPRVKAVKSSEHINEGETAMLVCKSESVPPVTDWAWYKITDSEDKALMNGSESRFFVSSSQGRSELHIENLNMEADPGQYRCNGTSSKGSDQAIITLRVRSH
notes: CD147 (EMMPRIN, HAb18G/CD147), extracellular portion, residues 22-205 as for CD147wt, with E73A; also called CD147mt; CD147mts; source: prokaryotic expression system, purified
Regarding B2, the binding result in data set [2] was “binds”.

B3: CD147 mutant E64A, extracellular portion tagged with 6 x His (domain or fragment, UniProt P35613-2 22-205, looked up)
chain: AAGTVFTTVEDLGSKILLTCSLNDSATEVTGHRWLKGGVVLKADALPGQKTEFKVDSDDQWGEYSCVFLPEPMGTANIQLHGPPRVKAVKSSEHINEGETAMLVCKSESVPPVTDWAWYKITDSEDKALMNGSESRFFVSSSQGRSELHIENLNMEADPGQYRCNGTSSKGSDQAIITLRVRSH
notes: CD147 (EMMPRIN, HAb18G/CD147), extracellular portion, residues 22-205 as for CD147wt, with E64A; also called CD147mt; CD147mts; source: prokaryotic expression system, purified
In the case of B3, the binding result in data set [2] is on record as “binds”.
